In patent US20240252614A1:

Tests used:
Settings in all cases: remark: other sources report otherwise
hMPV085 (hMPV A), Q6WB98 = experiment: BLI, 58C stress
hMPV087 (hMPV A), Q6WB98 = experiment: BLI, 58C stress
hMPV086 (hMPV A), Q6WB98 = experiment: BLI, 58C stress
hMPV097 (hMPV A), Q6WB98 = experiment: BLI, 58C stress
hMPV082 (hMPV A), Q6WB98 = experiment: BLI, 58C stress
hMPV090 (hMPV A), Q6WB98 = experiment: BLI, 58C stress
hMPV084 (hMPV A), Q6WB98 = experiment: BLI, 58C stress
hMPV079 (hMPV A), Q6WB98 = experiment: BLI, 58C stress
hMPV078 (hMPV A), Q6WB98 = experiment: BLI, 58C stress
hMPV088 (hMPV A), Q6WB98 = experiment: BLI, 58C stress
[1] = target: hMPV A F WT Control (hMPV A), Q6WB98; experiment: BLI, 58C stress
hMPV089 (hMPV A), Q6WB98 [2] = experiment: BLI, 58C stress
hMPV083 (hMPV A), Q6WB98 = experiment: BLI, 58C stress
hMPV081 (hMPV A), Q6WB98 [3] = experiment: BLI, 58C stress
hMPV089 (hMPV A), Q6WB98 [4] = experiment: BLI, 53C stress
hMPV081 (hMPV A), Q6WB98 [5] = experiment: BLI, 53C stress
hMPV066 (hMPV A), Q6WB98 = experiment: BLI, 53C stress
hMPV054 (hMPV A), Q6WB98 = experiment: BLI, 53C stress
hMPV046 (hMPV A), Q6WB98 = experiment: BLI, 53C stress
hMPV053 (hMPV A), Q6WB98 = experiment: BLI, 53C stress
hMPV058 (hMPV A), Q6WB98 = experiment: BLI, 53C stress
hMPV049 (hMPV A), Q6WB98 = experiment: BLI, 53C stress
hMPV075 (hMPV A), Q6WB98 = experiment: BLI, 53C stress
hMPV062 (hMPV A), Q6WB98 = experiment: BLI, 53C stress
hMPV052 (hMPV A), Q6WB98 = experiment: BLI, 53C stress
hMPV068 (hMPV A), Q6WB98 = experiment: BLI, 53C stress
hMPV050 (hMPV A), Q6WB98 = experiment: BLI, 53C stress
hMPV043 (hMPV A), Q6WB98 = experiment: BLI, 53C stress
hMPV067 (hMPV A), Q6WB98 = experiment: BLI, 53C stress
hMPV044 (hMPV A), Q6WB98 = experiment: BLI, 53C stress
hMPV071 (hMPV A), Q6WB98 = experiment: BLI, 53C stress
hMPV069 (hMPV A), Q6WB98 = experiment: BLI, 53C stress
hMPV077 (hMPV A), Q6WB98 = experiment: BLI, 53C stress
hMPV055 (hMPV A), Q6WB98 = experiment: BLI, 53C stress
hMPV045 (hMPV A), Q6WB98 = experiment: BLI, 53C stress
hMPV060 (hMPV A), Q6WB98 = experiment: BLI, 53C stress
hMPV063 (hMPV A), Q6WB98 = experiment: BLI, 53C stress
hMPV047 (hMPV A), Q6WB98 = experiment: BLI, 53C stress
[6] = target: hMPV A F WT Control (hMPV A), Q6WB98; experiment: BLI, 53C stress
hMPV048 (hMPV A), Q6WB98 = experiment: BLI, 53C stress
hMPV059 (hMPV A), Q6WB98 = experiment: BLI, 53C stress
hMPV061 (hMPV A), Q6WB98 = experiment: BLI, 53C stress
hMPV080 (hMPV A), Q6WB98 = experiment: BLI, no stress
[7] = target: hMPV A F WT Control (hMPV A), Q6WB98; experiment: BLI, no stress

B1: MPE8 mAb (antibody, V domains shown)
VH: EVQLVESGGGLVKPGGSLRLSCAASGFTFSSYSMNWVRQAPGKGLEWVSSISASSSYSDYADSAKGRFTISRDNAKTSLFLQMNSLRAEDTAIYFCARARATGYSSITPYFDIWGQGTLVTVSS
VL: QSVVTQTPSVSGAPGQRVTISCTGSSSNIGAGYDVHWYQQLPGTAPKLLIYDNNNRPSGVPDRFSASKSGTSASLAITGLQAEDEADYYCQSYDRNLSGVFGTGTKVTVL
hMPV085 (hMPV A), Q6WB98
  Response Shift: 0.757 nm
hMPV087 (hMPV A), Q6WB98
  Response Shift: 0.805 nm
hMPV086 (hMPV A), Q6WB98
  Response Shift: 0.736 nm
hMPV097 (hMPV A), Q6WB98
  Response Shift: 0.918 nm
hMPV082 (hMPV A), Q6WB98
  Response Shift: 0.928 nm
hMPV090 (hMPV A), Q6WB98
  Response Shift: 0.906 nm
hMPV084 (hMPV A), Q6WB98
  Response Shift: 0.665 nm
hMPV079 (hMPV A), Q6WB98
  Response Shift: 0.867 nm
hMPV078 (hMPV A), Q6WB98
  Response Shift: 0.939 nm
hMPV088 (hMPV A), Q6WB98
  Response Shift: 0.812 nm
[1]
  Response Shift: 0.006 nm
hMPV089 (hMPV A), Q6WB98 [2]
  Response Shift: 0.917 nm
hMPV083 (hMPV A), Q6WB98
  Response Shift: 0.768 nm
hMPV081 (hMPV A), Q6WB98 [3]
  Response Shift: 0.945 nm
hMPV089 (hMPV A), Q6WB98 [4]
  Response Shift: 0.928 nm
hMPV081 (hMPV A), Q6WB98 [5]
  Response Shift: 0.915 nm
hMPV066 (hMPV A), Q6WB98
  Response Shift: -0.003 nm
hMPV054 (hMPV A), Q6WB98
  Response Shift: -0.064 nm
hMPV046 (hMPV A), Q6WB98
  Response Shift: -0.012 nm
hMPV053 (hMPV A), Q6WB98
  Response Shift: -0.032 nm
hMPV058 (hMPV A), Q6WB98
  Response Shift: -0.05 nm
hMPV049 (hMPV A), Q6WB98
  Response Shift: -0.065 nm
hMPV075 (hMPV A), Q6WB98
  Response Shift: -0.069 nm
hMPV062 (hMPV A), Q6WB98
  Response Shift: 0.006 nm
hMPV052 (hMPV A), Q6WB98
  Response Shift: -0.045 nm
hMPV068 (hMPV A), Q6WB98
  Response Shift: 0.002 nm
hMPV050 (hMPV A), Q6WB98
  Response Shift: -0.014 nm
hMPV043 (hMPV A), Q6WB98
  Response Shift: 0.01 nm
hMPV067 (hMPV A), Q6WB98
  Response Shift: -0.041 nm
hMPV044 (hMPV A), Q6WB98
  Response Shift: 0.534 nm
hMPV071 (hMPV A), Q6WB98
  Response Shift: -0.039 nm
hMPV069 (hMPV A), Q6WB98
  Response Shift: -0.003 nm
hMPV077 (hMPV A), Q6WB98
  Response Shift: -0.041 nm
hMPV055 (hMPV A), Q6WB98
  Response Shift: -0.078 nm
hMPV045 (hMPV A), Q6WB98
  Response Shift: -0.025 nm
hMPV060 (hMPV A), Q6WB98
  Response Shift: -0.06 nm
hMPV063 (hMPV A), Q6WB98
  Response Shift: -0.008 nm
hMPV047 (hMPV A), Q6WB98
  Response Shift: -0.051 nm
[6]
  Response Shift: -0.017 nm
hMPV048 (hMPV A), Q6WB98
  Response Shift: -0.056 nm
hMPV059 (hMPV A), Q6WB98
  Response Shift: -0.039 nm
hMPV061 (hMPV A), Q6WB98
  Response Shift: -0.059 nm
hMPV080 (hMPV A), Q6WB98
  Response Shift: 0.787 nm
[7]
  Response Shift: 0.102 nm
